Measured values: patent US20250085287A1 (ADICET THERAPEUTICS, published 2025)

Experiments:
[1] = target: human GPC3 on tumor cells (membrane-associated GPC3 in FFPE xenograft tissue) (human) (UniProt P51654); assay: IHC on FFPE xenograft tumor tissue, cytoplasmic staining; HepG2
[2] = target: human GPC3 on tumor cells (membrane-associated GPC3 in FFPE xenograft tissue) (human) (UniProt P51654); assay: IHC on FFPE xenograft tumor tissue; Hep3B, table row 2
[3] = target: human GPC3 on tumor cells (membrane-associated GPC3 in FFPE xenograft tissue) (human) (UniProt P51654); assay: IHC on FFPE xenograft tumor tissue, Huh7
[4] = target: human GPC3 on tumor cells (membrane-associated GPC3 in FFPE xenograft tissue) (human) (UniProt P51654); assay: IHC on FFPE xenograft tumor tissue, Hep3B
[5] = target: human GPC3 on tumor cells (membrane-associated GPC3 in FFPE xenograft tissue) (human) (UniProt P51654); assay: IHC (DAB), implanted PP5 tumor (GPC3lo), bottom row of images, 1G12 at 0.5 µg/mL
[6] = target: human GPC3 on tumor cells (membrane-associated GPC3 in FFPE xenograft tissue) (human) (UniProt P51654); assay: IHC on FFPE xenograft tumor tissue; HepG2, table row 5
[7] = target: human GPC3 on tumor cells (membrane-associated GPC3 in FFPE xenograft tissue) (human) (UniProt P51654); assay: IHC on FFPE xenograft tumor tissue, cytoplasmic staining; Hep3B, table row 1
[8] = target: human GPC3 on tumor cells (membrane-associated GPC3 in FFPE xenograft tissue) (human) (UniProt P51654); assay: IHC on FFPE xenograft tumor tissue, PP5 (PLC/PRF/5)
[9] = target: recombinant human glypican-3 (rhGPC3) (human) (UniProt P51654); assay: BLI; antibody captured on IgG-Fc capture biosensor, antigen as analyte, global 1:1 fit
recombinant human glypican-3 (rhGPC3) (human), sequence (P51654 25-559): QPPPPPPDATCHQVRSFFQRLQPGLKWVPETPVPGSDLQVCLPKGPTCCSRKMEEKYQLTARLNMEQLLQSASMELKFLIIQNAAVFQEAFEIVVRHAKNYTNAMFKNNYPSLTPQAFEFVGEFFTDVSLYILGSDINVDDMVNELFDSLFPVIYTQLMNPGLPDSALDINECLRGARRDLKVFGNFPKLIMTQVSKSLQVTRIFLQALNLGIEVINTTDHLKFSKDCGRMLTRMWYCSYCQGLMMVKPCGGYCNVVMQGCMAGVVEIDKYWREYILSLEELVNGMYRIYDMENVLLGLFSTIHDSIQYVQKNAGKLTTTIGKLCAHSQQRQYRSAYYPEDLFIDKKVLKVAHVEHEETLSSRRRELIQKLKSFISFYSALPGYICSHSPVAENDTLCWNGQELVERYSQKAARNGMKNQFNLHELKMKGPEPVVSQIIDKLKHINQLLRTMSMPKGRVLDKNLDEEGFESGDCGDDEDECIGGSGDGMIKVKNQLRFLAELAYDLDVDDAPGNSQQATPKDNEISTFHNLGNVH

[10] = target: recombinant human glypican-3 (rhGPC3) (human) (UniProt P51654); assay: BLI; antibody captured on IgG-Fc capture biosensor, antigen as analyte from 100 nM, 1:3 dilutions, global 1:1 fit
[11] = target: human GPC3 on tumor cells (membrane-associated GPC3 in FFPE xenograft tissue) (human) (UniProt P51654); assay: IHC on hepatocellular carcinoma
[12] = target: human GPC3 on tumor cells (membrane-associated GPC3 in FFPE xenograft tissue) (human) (UniProt P51654); assay: IHC on FFPE xenograft tumor tissue, cytoplasmic staining; Hep3B, table row 3
[13] = target: human GPC3 on tumor cells (membrane-associated GPC3 in FFPE xenograft tissue) (human) (UniProt P51654); assay: IHC on FFPE xenograft tumor tissue, HepG2
[14] = target: human GPC3 on tumor cells (membrane-associated GPC3 in FFPE xenograft tissue) (human) (UniProt P51654); assay: IHC on FFPE xenograft tumor tissue, cytoplasmic staining; Hep3B, table row 2
[15] = target: human GPC3 on tumor cells (membrane-associated GPC3 in FFPE xenograft tissue) (human) (UniProt P51654); assay: IHC on FFPE xenograft tumor tissue; Hep3B, table row 1
[16] = target: human GPC3 on tumor cells (membrane-associated GPC3 in FFPE xenograft tissue) (human) (UniProt P51654); assay: IHC on FFPE xenograft tumor tissue; HepG2, table row 5 (so in the source); the four percentages of the row add up to 105
[17] = target: human GPC3 on tumor cells (membrane-associated GPC3 in FFPE xenograft tissue) (human) (UniProt P51654); assay: IHC (DAB), implanted PP5 tumor (GPC3lo), middle row of images, 1G12 at 0.5 µg/mL
[18] = target: human GPC3 on tumor cells (membrane-associated GPC3 in FFPE xenograft tissue) (human) (UniProt P51654); assay: IHC on FFPE xenograft tumor tissue; Hep3B, table row 3 (so in the source); does not fit the 90 and the 255 of the same row
[19] = target: human GPC3 on tumor cells (membrane-associated GPC3 in FFPE xenograft tissue) (human) (UniProt P51654); assay: IHC on FFPE xenograft tumor tissue; HepG2, table row 4
[20] = target: human GPC3 on tumor cells (membrane-associated GPC3 in FFPE xenograft tissue) (human) (UniProt P51654); assay: IHC on FFPE xenograft tumor tissue; Hep3B, table row 3
[21] = target: human GPC3 on tumor cells (membrane-associated GPC3 in FFPE xenograft tissue) (human) (UniProt P51654); assay: IHC (DAB), implanted HepG2 tumor (GPC3hi), 1G12 at 0.5 µg/mL
[22] = target: human GPC3 on tumor cells (membrane-associated GPC3 in FFPE xenograft tissue) (human) (UniProt P51654); assay: IHC on squamous cell carcinoma of the lung
[23] = target: human GPC3 on tumor cells (membrane-associated GPC3 in FFPE xenograft tissue) (human) (UniProt P51654); assay: IHC on FFPE xenograft tumor tissue; HepG2, table row 6
[24] = target: recombinant human glypican-3 (rhGPC3) (human) (UniProt P51654); assay: BLI; humanized GC33 captured on anti-human IgG-Fc biosensor, antigen as analyte from 100 nM, 1:3 dilutions, global 1:1 fit
[25] = target: recombinant human glypican-3 (rhGPC3) (human) (UniProt P51654); assay: BLI; antibody captured on anti-mouse IgG-Fc biosensor, antigen as analyte, global 1:1 fit
[26] = target: recombinant human glypican-3 (rhGPC3) (human) (UniProt P51654); assay: BLI in-tandem cross-competition; biotinylated antigen on SA biosensor saturated with 150 nM GC33 (competitor), then 150 nM 204
[27] = target: recombinant human glypican-3 (rhGPC3) (human) (UniProt P51654); assay: BLI; antibody captured on anti-mouse IgG-Fc biosensor, antigen as analyte from 100 nM, 1:3 dilutions, global 1:1 fit
[28] = target: recombinant human glypican-3 (rhGPC3) (human) (UniProt P51654); assay: BLI in-tandem cross-competition; buffer only, no saturating antibody (maximal binding reference)
[29] = target: recombinant human glypican-3 (rhGPC3) (human) (UniProt P51654); assay: BLI in-tandem cross-competition; biotinylated antigen on SA biosensor saturated with 150 nM 204 (self-blocking), then 150 nM 204
[30] = target: T1, recombinant human glypican-5 (rhGPC5) (human, UniProt P78333 25-551, limits assumed); assay: western blot, primary antibody 1 ug/mL
T1 sequence (looked up): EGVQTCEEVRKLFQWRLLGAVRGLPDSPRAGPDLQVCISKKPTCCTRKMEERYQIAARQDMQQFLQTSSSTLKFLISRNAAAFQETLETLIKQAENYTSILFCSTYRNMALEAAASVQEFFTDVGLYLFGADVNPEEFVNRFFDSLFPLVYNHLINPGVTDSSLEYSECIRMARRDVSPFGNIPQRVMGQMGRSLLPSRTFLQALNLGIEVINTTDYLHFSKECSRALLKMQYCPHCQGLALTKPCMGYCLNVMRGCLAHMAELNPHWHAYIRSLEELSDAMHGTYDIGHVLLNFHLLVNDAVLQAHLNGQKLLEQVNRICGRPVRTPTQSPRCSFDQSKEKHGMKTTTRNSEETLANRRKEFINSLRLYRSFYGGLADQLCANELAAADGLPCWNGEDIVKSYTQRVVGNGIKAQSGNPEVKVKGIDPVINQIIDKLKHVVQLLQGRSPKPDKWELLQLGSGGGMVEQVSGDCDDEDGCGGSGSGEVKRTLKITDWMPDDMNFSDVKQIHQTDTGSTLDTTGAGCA

[31] = target: T2, recombinant human glypican-6 (rhGPC6) (human, UniProt Q9Y625 24-529, limits assumed); assay: western blot, primary antibody 1 ug/mL
T2 sequence (looked up): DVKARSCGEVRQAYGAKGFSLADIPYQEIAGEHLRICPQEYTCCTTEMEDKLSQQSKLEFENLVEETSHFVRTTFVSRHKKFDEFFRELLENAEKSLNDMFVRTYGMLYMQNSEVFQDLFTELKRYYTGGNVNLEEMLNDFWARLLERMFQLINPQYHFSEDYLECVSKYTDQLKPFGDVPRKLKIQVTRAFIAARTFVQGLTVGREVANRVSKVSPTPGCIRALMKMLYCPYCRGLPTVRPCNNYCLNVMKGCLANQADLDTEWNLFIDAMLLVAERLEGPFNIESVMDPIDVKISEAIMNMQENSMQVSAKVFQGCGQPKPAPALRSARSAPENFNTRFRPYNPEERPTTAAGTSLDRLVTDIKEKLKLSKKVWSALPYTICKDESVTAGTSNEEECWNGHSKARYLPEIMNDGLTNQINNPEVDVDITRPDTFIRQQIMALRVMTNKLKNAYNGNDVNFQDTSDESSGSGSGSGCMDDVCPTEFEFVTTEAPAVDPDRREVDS

human GPC3 on tumor cells (membrane-associated GPC3 in FFPE xenograft tissue) (human), sequence (P51654 25-554 limits assumed): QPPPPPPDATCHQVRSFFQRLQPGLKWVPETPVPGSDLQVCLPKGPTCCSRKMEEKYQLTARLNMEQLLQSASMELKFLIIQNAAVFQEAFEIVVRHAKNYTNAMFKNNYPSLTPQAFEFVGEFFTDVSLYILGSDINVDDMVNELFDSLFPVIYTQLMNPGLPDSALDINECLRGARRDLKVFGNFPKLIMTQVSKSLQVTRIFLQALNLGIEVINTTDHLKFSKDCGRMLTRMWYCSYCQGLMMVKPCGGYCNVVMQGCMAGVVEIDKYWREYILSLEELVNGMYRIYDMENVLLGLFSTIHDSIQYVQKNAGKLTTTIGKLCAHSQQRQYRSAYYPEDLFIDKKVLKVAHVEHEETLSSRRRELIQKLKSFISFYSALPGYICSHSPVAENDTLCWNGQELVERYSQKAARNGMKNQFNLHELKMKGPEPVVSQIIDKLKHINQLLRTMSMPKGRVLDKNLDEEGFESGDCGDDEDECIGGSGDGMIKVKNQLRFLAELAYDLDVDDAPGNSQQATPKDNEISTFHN

1G12 anti-GPC3 monoclonal antibody
Average Intensity of cytoplasmic staining [1]: 2 +
% Tumor Cells Positive - Membranous Staining, intensity 0 [2]: 0%
% Tumor Cells Positive - Membranous Staining, intensity 1+ [2]: 5%
% Tumor Cells Positive - Membranous Staining, intensity 2+ [2]: 15%
% Tumor Cells Positive - Membranous Staining, intensity 3+ [2]: 80%
H-Score (membranous staining) [2]: 275
Mod/High Intensity (2/3+) [2]: 95%
Membrane-bound GPC3 H-score [3]: 80
Membrane-bound GPC3 H-score [4]: 265
Membrane-associated H-Score [5]: 90
% Tumor Cells Positive - Membranous Staining, intensity 0 [6]: 5%
% Tumor Cells Positive - Membranous Staining, intensity 1+ [6]: 10%
% Tumor Cells Positive - Membranous Staining, intensity 2+ [6]: 45%
H-Score (membranous staining) [6]: 220
Mod/High Intensity (2/3+) [6]: 85%
Average Intensity of cytoplasmic staining [7]: 1 +
Membrane-bound GPC3 H-score [8]: 75
koff [9]: 0.00053 s⁻¹
kon [9]: 170000 M⁻¹ s⁻¹
Kd [10]: 3 nM
Membrane-bound GPC3 H-score [11]: 110
Average Intensity of cytoplasmic staining [12]: 1 +
Membrane-bound GPC3 H-score [13]: 260
Average Intensity of cytoplasmic staining [14]: 1 +
% Tumor Cells Positive - Membranous Staining, intensity 0 [15]: 5%
% Tumor Cells Positive - Membranous Staining, intensity 1+ [15]: 5%
% Tumor Cells Positive - Membranous Staining, intensity 2+ [15]: 10%
% Tumor Cells Positive - Membranous Staining, intensity 3+ [15]: 80%
H-Score (membranous staining) [15]: 265
Mod/High Intensity (2/3+) [15]: 90%
% Tumor Cells Positive - Membranous Staining, intensity 3+ [16]: 45%
Membrane-associated H-Score [17]: 130
% Tumor Cells Positive - Membranous Staining, intensity 3+ [18]: 20%
% Tumor Cells Positive - Membranous Staining, intensity 0 [19]: 5%
% Tumor Cells Positive - Membranous Staining, intensity 1+ [19]: 20%
% Tumor Cells Positive - Membranous Staining, intensity 2+ [19]: 50%
% Tumor Cells Positive - Membranous Staining, intensity 3+ [19]: 25%
H-Score (membranous staining) [19]: 195
Mod/High Intensity (2/3+) [19]: 75%
% Tumor Cells Positive - Membranous Staining, intensity 0 [20]: 5%
% Tumor Cells Positive - Membranous Staining, intensity 1+ [20]: 5%
% Tumor Cells Positive - Membranous Staining, intensity 2+ [20]: 20%
H-Score (membranous staining) [20]: 255
Mod/High Intensity (2/3+) [20]: 90%
Membrane-associated H-Score [21]: 285
Membrane-bound GPC3 H-score [22]: 90
% Tumor Cells Positive - Membranous Staining, intensity 0 [23]: 5%
% Tumor Cells Positive - Membranous Staining, intensity 1+ [23]: 10%
% Tumor Cells Positive - Membranous Staining, intensity 2+ [23]: 5%
% Tumor Cells Positive - Membranous Staining, intensity 3+ [23]: 80%
H-Score (membranous staining) [23]: 260
Mod/High Intensity (2/3+) [23]: 85%

GC33 anti-GPC3 antibody
Kd [24]: 1 nM

B1: 204 monoclonal antibody (mouse anti-human GPC3) (antibody, IgG2b, V domains shown)
VH: EVQLQQSGPELVKPGASVKISCKTSGYTFTEYAMHWVKQSHGKSLEWIGGINPNNGVTTYNQRFKGKATLTVDKSSSTAYMELRSLTSEDSAVYYCARGLLWYAYWGQGTLVTVSA
VL: DIKMTQSPSSMYASLGERVTITCKASQDINSYLSWFQQKPGKSPKTLIYRANRLVDGVPSRFSGSGSGQDYSLTISSLEYEDMGIYYCLQYDEFPLTFGAGTKLELK
notes: also called GPC.204
koff [25]: 0.0021 s⁻¹
kon [25]: 820000 M⁻¹ s⁻¹
% Binding of Competing Antibody [26]: 89.9%
Kd [27]: 2.5 nM
% Binding of Competing Antibody [28]: 100%
% Binding of Competing Antibody [29]: 18.2%
binding result [30]: no binding
binding result [31]: no binding
